Data taken from the RNAGym collection of RNA variant scans (doi:10.7554/elife.80360).

B1: Hairpin Ribozyme (parent)
chain: GUCCUCUUUCACGUGCGCGUGAAAGAGAGAAGUGAACCAGAGAAACACACGUUGUGGUAUAUUACCUGGUA

Variants of: B1
Test: self-cleavage, relative activity (ratio to wild type); higher = more cleavage; co-transcriptional

Variant | self-cleavage
GUCCUCUUUCACGUGCGCGUGAAAGAGAGAAGUGAACCAGAGAACCACACGUUGUGUUAUAUUACCUGGUA [A45C G57U] | 0.249
GUCCUCUUUCACGUGCGCGUGAAAGAGAGAAGUGAACCAGAGAAUCACACGUUGUGGUAUAUUACCUUGUA [A45U G68U] | 0.258
GUCCUCUUUCACGUGCGCGUGAAAGAGAGAAGUGAACCAGAGAAUCACACGUUGUGGUAUAUUACCUAGUA [A45U G68A] | 0.169
GUCCUCUUUCACGUGCGCGUGAAAGAGAGAAGUGAACCAGAGAACCACAUGUUGUGGUAUAUUACCUGGUA [A45C C50U] | 0.0931
GUCCUCUUUCACGUGCGCGUGAAAGAGAGAAGUGAACCAGAGAAGCACAGGUUGUGGUAUAUUACCUGGUA [A45G C50G] | 0.109
GUCCUCUUUCACGUGCGCGUGAAAGAGAGAAGUGAACCAGAGAAGCACACGUUGUAGUAUAUUACCUGGUA [A45G G56A] | 0.183
GUCCUCUUUCACGUGCGCGUGAAAGAGAGAAGUGAACCAGAGAUACACACGUUGUGGUAUAUUACCCGGUA [A44U U67C] | 0.099
GUCCUCUUUCACGUGCGCGUGAAAGAGAGAAGUGAACCAGAGAUACACACGUUGUGGUAUAUUACCAGGUA [A44U U67A] | 0.143
GUCCUCUUUCACGUGCGCGUGAAAGAGAGAAGUGAACCAGAGAUACACACGUUGUGGUAUAUUACCGGGUA [A44U U67G] | 0.102
GUCCUCUUUCACGUGCGCGUGAAAGAGAGAAGUGAACCAGAGAUACACACGUUGGGGUAUAUUACCUGGUA [A44U U55G] | 0.0792
GUCCUCUUUCACGUGCGCGUGAAAGAGAGAAGUGAACCAGAGAACCACACGUUGCGGUAUAUUACCUGGUA [A45C U55C] | 0.244
GUCCUCUUUCACGUGCGCGUGAAAGAGAGAAGUGAACCAGAGAACCACACGUUGGGGUAUAUUACCUGGUA [A45C U55G] | 0.0998
GUCCUCUUUCACGUGCGCGUGAAAGAGAGAAGUGAACCAGAGAAGCACACGUUGUGGUAUAUUAACUGGUA [A45G C65A] | 0.349
GUCCUCUUUCACGUGCGCGUGAAAGAGAGAAGUGAACCAGAGAAGCACACGUUGUGGUAUAUUAGCUGGUA [A45G C65G] | 0.168
GUCCUCUUUCACGUGCGCGUGAAAGAGAGAAGUGAACCAGAGAAGCACACGUUGUGGUAUAUUAUCUGGUA [A45G C65U] | 0.146
GUCCUCUUUCACGUGCGCGUGAAAGAGAGAAGUGAACCAGAGAAUCACACGUUGUGGUAUAUUACGUGGUA [A45U C66G] | 0.236
GUCCUCUUUCACGUGCGCGUGAAAGAGAGAAGUGAACCAGAGAAGCACACGUUGUGGUCUAUUACCUGGUA [A45G A59C] | 0.151
GUCCUCUUUCACGUGCGCGUGAAAGAGAGAAGUGAACCAGAGAAUCACAAGUUGUGGUAUAUUACCUGGUA [A45U C50A] | 0.145
GUCCUCUUUCACGUGCGCGUGAAAGAGAGAAGUGAACCAGAGAUACACACGUUGUGGUAUAAUACCUGGUA [A44U U62A] | 0.26
GUCCUCUUUCACGUGCGCGUGAAAGAGAGAAGUGAACCAGAGAACCAUACGUUGUGGUAUAUUACCUGGUA [A45C C48U] | 0.145
GUCCUCUUUCACGUGCGCGUGAAAGAGAGAAGUGAACCAGAGAACCACGCGUUGUGGUAUAUUACCUGGUA [A45C A49G] | 0.0463
GUCCUCUUUCACGUGCGCGUGAAAGAGAGAAGUGAACCAGAGAACCACCCGUUGUGGUAUAUUACCUGGUA [A45C A49C] | 0.142
GUCCUCUUUCACGUGCGCGUGAAAGAGAGAAGUGAACCAGAGAUACACACGUUGUGGUAUAUUACCUUGUA [A44U G68U] | 0.187
GUCCUCUUUCACGUGCGCGUGAAAGAGAGAAGUGAACCAGAGAACCACACGUUGUUGUAUAUUACCUGGUA [A45C G56U] | 0.203
GUCCUCUUUCACGUGCGCGUGAAAGAGAGAAGUGAACCAGAGAACCACACGAUGUGGUAUAUUACCUGGUA [A45C U52A] | 0.0823
GUCCUCUUUCACGUGCGCGUGAAAGAGAGAAGUGAACCAGAGAAGCACGCGUUGUGGUAUAUUACCUGGUA [A45G A49G] | 0.177

Variant | self-cleavage
GUCCUCUUUCACGUGCGCGUGAAAGAGAGAAGUGAACCAGAGAAGCACUCGUUGUGGUAUAUUACCUGGUA [A45G A49U] | 0.172
GUCCUCUUUCACGUGCGCGUGAAAGAGAGAAGUGAACCAGAGAAGCACACGUUGUGGUAUUUUACCUGGUA [A45G A61U] | 0.0962
GUCCUCUUUCACGUGCGCGUGAAAGAGAGAAGUGAACCAGAGAAGCACACGUUGUGGUAUGUUACCUGGUA [A45G A61G] | 0.169
GUCCUCUUUCACGUGCGCGUGAAAGAGAGAAGUGAACCAGAGAACCACACGUUGUGGUAUAUAACCUGGUA [A45C U63A] | 0.0272
GUCCUCUUUCACGUGCGCGUGAAAGAGAGAAGUGAACCAGAGAAGCACACGAUGUGGUAUAUUACCUGGUA [A45G U52A] | 0.0852
GUCCUCUUUCACGUGCGCGUGAAAGAGAGAAGUGAACCAGAGAAGCACACGCUGUGGUAUAUUACCUGGUA [A45G U52C] | 0.0811
GUCCUCUUUCACGUGCGCGUGAAAGAGAGAAGUGAACCAGAGAAUCACACGUUGUAGUAUAUUACCUGGUA [A45U G56A] | 0.166
GUCCUCUUUCACGUGCGCGUGAAAGAGAGAAGUGAACCAGAGAACCUCACGUUGUGGUAUAUUACCUGGUA [A45C A47U] | 0.212
GUCCUCUUUCACGUGCGCGUGAAAGAGAGAAGUGAACCAGAGAACCCCACGUUGUGGUAUAUUACCUGGUA [A45C A47C] | 0.198
GUCCUCUUUCACGUGCGCGUGAAAGAGAGAAGUGAACCAGAGAACCACACCUUGUGGUAUAUUACCUGGUA [A45C G51C] | 0.0857
GUCCUCUUUCACGUGCGCGUGAAAGAGAGAAGUGAACCAGAGAUACACACGUUGUGAUAUAUUACCUGGUA [A44U G57A] | 0.0753
GUCCUCUUUCACGUGCGCGUGAAAGAGAGAAGUGAACCAGAGAAGCACACGUUGUGGCAUAUUACCUGGUA [A45G U58C] | 0.269
GUCCUCUUUCACGUGCGCGUGAAAGAGAGAAGUGAACCAGAGAACCACACGUUGUGGUAUAUUACCCGGUA [A45C U67C] | 0.128
GUCCUCUUUCACGUGCGCGUGAAAGAGAGAAGUGAACCAGAGAUACACACGUUGUGGUAAAUUACCUGGUA [A44U U60A] | 0.239
GUCCUCUUUCACGUGCGCGUGAAAGAGAGAAGUGAACCAGAGAUACACACGUAGUGGUAUAUUACCUGGUA [A44U U53A] | 0.079
GUCCUCUUUCACGUGCGCGUGAAAGAGAGAAGUGAACCAGAGAUACACACGUGGUGGUAUAUUACCUGGUA [A44U U53G] | 0.159
GUCCUCUUUCACGUGCGCGUGAAAGAGAGAAGUGAACCAGAGAACGACACGUUGUGGUAUAUUACCUGGUA [A45C C46G] | 0.152
GUCCUCUUUCACGUGCGCGUGAAAGAGAGAAGUGAACCAGAGAAGCACACGUUGUGGUAUAUUACCCGGUA [A45G U67C] | 0.12
GUCCUCUUUCACGUGCGCGUGAAAGAGAGAAGUGAACCAGAGAAUCACACGUUGUGCUAUAUUACCUGGUA [A45U G57C] | 0.15
GUCCUCUUUCACGUGCGCGUGAAAGAGAGAAGUGAACCAGAGAACCACACGUUGUGGUAUAUUAGCUGGUA [A45C C65G] | 0.0639
GUCCUCUUUCACGUGCGCGUGAAAGAGAGAAGUGAACCAGAGAACCACACGUUGUGGUAUAUUAUCUGGUA [A45C C65U] | 0.102
GUCCUCUUUCACGUGCGCGUGAAAGAGAGAAGUGAACCAGAGAACCACACGUUGUGGGAUAUUACCUGGUA [A45C U58G] | 0.3
GUCCUCUUUCACGUGCGCGUGAAAGAGAGAAGUGAACCAGAGAACCACACGUUGUGGAAUAUUACCUGGUA [A45C U58A] | 0.309
GUCCUCUUUCACGUGCGCGUGAAAGAGAGAAGUGAACCAGAGAAGCACACGUUGUGCUAUAUUACCUGGUA [A45G G57C] | 0.0828
GUCCUCUUUCACGUGCGCGUGAAAGAGAGAAGUGAACCAGAGAACCACACGUUGUGGUAUAUUACCUGGUA [A45C] | 0.154
GUCCUCUUUCACGUGCGCGUGAAAGAGAGAAGUGAACCAGAGAAUCACACGUUGUGGUAUAUUACCUGGUA [A45U] | 0.14

Variant | self-cleavage
GUCCUCUUUCACGUGCGCGUGAAAGAGAGAAGUGAACCAGAGAAGCACACGUUGUGGUAUAUUACCUGGUA [A45G] | 0.177
GUCCUCUUUCACGUGCGCGUGAAAGAGAGAAGUGAACCAGAGAAGCACACCUUGUGGUAUAUUACCUGGUA [A45G G51C] | 0.176
GUCCUCUUUCACGUGCGCGUGAAAGAGAGAAGUGAACCAGAGAAGCACACGUUGUGGUAUAAUACCUGGUA [A45G U62A] | 0.0572
GUCCUCUUUCACGUGCGCGUGAAAGAGAGAAGUGAACCAGAGAAGCACACGUUGUGGUAUAGUACCUGGUA [A45G U62G] | 0.12
GUCCUCUUUCACGUGCGCGUGAAAGAGAGAAGUGAACCAGAGAUACACACGUUGUGGGAUAUUACCUGGUA [A44U U58G] | 0.136
GUCCUCUUUCACGUGCGCGUGAAAGAGAGAAGUGAACCAGAGAAUCACACGUCGUGGUAUAUUACCUGGUA [A45U U53C] | 0.161
GUCCUCUUUCACGUGCGCGUGAAAGAGAGAAGUGAACCAGAGAUACACACGUUGUGGUAUAUUACCUGGGA [A44U U70G] | 0.201
GUCCUCUUUCACGUGCGCGUGAAAGAGAGAAGUGAACCAGAGAUACACACGCUGUGGUAUAUUACCUGGUA [A44U U52C] | 0.059
GUCCUCUUUCACGUGCGCGUGAAAGAGAGAAGUGAACCAGAGAAUCACACGUUGUGGUAUAUUACCUGAUA [A45U G69A] | 0.111
GUCCUCUUUCACGUGCGCGUGAAAGAGAGAAGUGAACCAGAGAACCACACGUUGUGGUAAAUUACCUGGUA [A45C U60A] | 0.174
GUCCUCUUUCACGUGCGCGUGAAAGAGAGAAGUGAACCAGAGAUACACACGUUGUGGUAUAUGACCUGGUA [A44U U63G] | 0.209
GUCCUCUUUCACGUGCGCGUGAAAGAGAGAAGUGAACCAGAGAAUAACACGUUGUGGUAUAUUACCUGGUA [A45U C46A] | 0.125
GUCCUCUUUCACGUGCGCGUGAAAGAGAGAAGUGAACCAGAGAAUGACACGUUGUGGUAUAUUACCUGGUA [A45U C46G] | 0.241
GUCCUCUUUCACGUGCGCGUGAAAGAGAGAAGUGAACCAGAGAAGCACACGUUGUGGUAUAUUUCCUGGUA [A45G A64U] | 0.176
GUCCUCUUUCACGUGCGCGUGAAAGAGAGAAGUGAACCAGAGAAGCGCACGUUGUGGUAUAUUACCUGGUA [A45G A47G] | 0.101
GUCCUCUUUCACGUGCGCGUGAAAGAGAGAAGUGAACCAGAGAACCACACGUUGUGGUAUAUUGCCUGGUA [A45C A64G] | 0.259
GUCCUCUUUCACGUGCGCGUGAAAGAGAGAAGUGAACCAGAGAACCACACGUUAUGGUAUAUUACCUGGUA [A45C G54A] | 0.132
GUCCUCUUUCACGUGCGCGUGAAAGAGAGAAGUGAACCAGAGAACCACACGUUGUGGUAUAUUACCUGGCA [A45C U70C] | 0.241
GUCCUCUUUCACGUGCGCGUGAAAGAGAGAAGUGAACCAGAGAACCACACGUUGUGGUAUAUUACCUGGAA [A45C U70A] | 0.222
GUCCUCUUUCACGUGCGCGUGAAAGAGAGAAGUGAACCAGAGAAUCACACGUUGUGGUAUAUUAACUGGUA [A45U C65A] | 0.131
GUCCUCUUUCACGUGCGCGUGAAAGAGAGAAGUGAACCAGAGAACCACACGUUGUGGUAUAUUACCUGAUA [A45C G69A] | 0.116
GUCCUCUUUCACGUGCGCGUGAAAGAGAGAAGUGAACCAGAGAUACACACGUUGUGGUAUAUUACCUGUUA [A44U G69U] | 0.299
GUCCUCUUUCACGUGCGCGUGAAAGAGAGAAGUGAACCAGAGAUACACACGUUGUGGUAUAUUACCUGAUA [A44U G69A] | 0.15
GUCCUCUUUCACGUGCGCGUGAAAGAGAGAAGUGAACCAGAGAAUCACACAUUGUGGUAUAUUACCUGGUA [A45U G51A] | 0.075
